Sequences and labels used below:
B1: LINE1-full (parent)
chain: UACGUAGGUGGUUUUCCCCUGAUAGUGCUAAGGGGGCCUGGAAGUUUGGACUGGGCAGAGCUCAACACAGCGUGGCAAAGUGGCUGUGGCUAGACUGCCUCUCUGGAUUCCUCGUCACUCAGCAGGGCAUCUCUGAGAGAAAUGCC

The variants in the data set derive from B1. In words: self-cleavage, relative activity (ratio to wild type); higher = more cleavage; in vitro, sequencing; the parent is a self-cleaving ribozyme.
For the variant UACGUAGGUGGUUUUCCCCUGAUAGUGCUAAGGGGGCCUGGAAGUUUGGACUGGGCAGAGCUCAACACAGCGUGGCAAAGUGGCUGGGGCUAGACUGCCUCUCUGGAUUCCUCGUCACUCAGCAGGGCGUCUCUGAGAGAAAUGCC [U87G A129G], the self-cleavage stood at 0.27.

As for UACGUAGGUGGUUUUCCCCUGAUAGUGCUAAGGGGGCCUGGAAGUUUGGACUGGGCAGAGCUCAACACAGCGUGGCAAAGUGGCUGCGGCUAGACAGCCUCUCUGGAUUCCUCGUCACUCAGCAGGGCAUCUCUGAGAGAAAUGCC [U87C U96A], the self-cleavage turned out to be 0.09.

Take UACGUAGGUGGUUUUCCCCUGAUAGUGCUAAGGGGGCCUGGAAGUUUGGACUGGGCAGAGCUCAACACAGCGUGGCAAAGUGGCUGGGGCUAGUCUGCCUCUCUGGAUUCCUCGUCACUCAGCAGGGCAUCUCUGAGAGAAAUGCC [U87G A94U]: the self-cleavage is 0.13.

As for UACGUAGGUGGUUUUCCCCUGAUAGUGCUAAGGGGGCCUGGAAGUUUGGACUGGGCAGAGCUCAACACAGCGUGGCAAAGUGGCUGUAGCUAGACUGCCUCUCUGGAUUCCUCGUCACUCGGCAGGGCAUCUCUGAGAGAAAUGCC [G88A A121G], the self-cleavage was determined as 0.06.

For UACGUAGGUGGUUUUCCCCUGAUAGUGCUAAGGGGGCCUGGAAGUUUGGACUGGGCAGAGCUCAACACAGCGUGGCAAAGUGGCUGGGGCUAGACUGCCUCUCUGGAUUCCUCGUCACUCAGCAGGGCAUCUCUGAGAGGAAUGCC [U87G A140G], the self-cleavage was determined as 0.19.

Consider UACGUAGGUGGUUUUCCCCUGAUAGUGCUAAGGGGGCCUGGAAGUUUGGACUGGGCAGAGCUCAACACAGCGUGGCAAAGUGGCUGCGGCUAGACUGCCUCUCUGGAUUCCUCGUCACACAGCAGGGCAUCUCUGAGAGAAAUGCC [U87C U119A], for which the self-cleavage turned out to be 0.19.

Regarding UACGUAGGUGGUUUUCCCCUGAUAGUGCUAAGGGGGCCUGGAAGUUUGGACUGGGCAGAGCUCAACACAGCGUGGCAAAGUGGCUGCGGCUAGACUGCCUCUCUGGAUUCCUCGUCACGCAGCAGGGCAUCUCUGAGAGAAAUGCC [U87C U119G], the self-cleavage was determined as 0.

Regarding UACGUAGGUGGUUUUCCCCUGAUAGUGCUAAGGGGGCCUGGAAGUUUGGACUGGGCAGAGCUCAACACAGCGUGGCAAAGUGGCUGCGGCUAGACUGCCUCUCUGGAUUCCUCGUCACCCAGCAGGGCAUCUCUGAGAGAAAUGCC [U87C U119C], the self-cleavage was found to be 0.24.

Regarding UACGUAGGUGGUUUUCCCCUGAUAGUGCUAAGGGGGCCUGGAAGUUUGGACUGGGCAGAGCUCAACACAGCGUGGCAAAGUGGCUGUAGCUAGACUGCCUCUCUGGAUUCCUCGUCACUCAGCAGGGCAUCUCUGGGAGAAAUGCC [G88A A136G], the self-cleavage came out at 0.07.

In the case of UACGUAGGUGGUUUUCCCCUGAUAGUGCUAAGGGGGCCUGGAAGUUUGGACUGGGCAGAGCUCAACACAGCGUGGCAAAGUGGCUGCGGCUAGACUGCCUCACUGGAUUCCUCGUCACUCAGCAGGGCAUCUCUGAGAGAAAUGCC [U87C U102A], the self-cleavage came out at 0.12.

As for UACGUAGGUGGUUUUCCCCUGAUAGUGCUAAGGGGGCCUGGAAGUUUGGACUGGGCAGAGCUCAACACAGCGUGGCAAAGUGGCUGGGGCUAGACUGCCUCUCUGGAUUCCUCGUCACUCAGCAGGGCAUCUCUGAGAGAAAUGCC [U87G], the self-cleavage was 0.21.

Consider UACGUAGGUGGUUUUCCCCUGAUAGUGCUAAGGGGGCCUGGAAGUUUGGACUGGGCAGAGCUCAACACAGCGUGGCAAAGUGGCUGGGGCUAGACUGCCUCUCUGGAUUCCUCGACACUCAGCAGGGCAUCUCUGAGAGAAAUGCC [U87G U115A], for which the self-cleavage turned out to be 0.24.

With UACGUAGGUGGUUUUCCCCUGAUAGUGCUAAGGGGGCCUGGAAGUUUGGACUGGGCAGAGCUCAACACAGCGUGGCAAAGUGGCUGGGGCUAGACUGCCUCUCUGGAUUCCUCGUCACUCAGCAGGGCACCUCUGAGAGAAAUGCC [U87G U130C], the self-cleavage stood at 0.41.

With UACGUAGGUGGUUUUCCCCUGAUAGUGCUAAGGGGGCCUGGAAGUUUGGACUGGGCAGAGCUCAACACAGCGUGGCAAAGUGGCUGGGGCUAGACUGCCUCUCUGGACUCCUCGUCACUCAGCAGGGCAUCUCUGAGAGAAAUGCC [U87G U108C], the self-cleavage was 0.16.

Take UACGUAGGUGGUUUUCCCCUGAUAGUGCUAAGGGGGCCUGGAAGUUUGGACUGGGCAGAGCUCAACACAGCGUGGCAAAGUGGCUGUAGCUAGACUGCCUCUCUGGAUUCCUCGUCACUCAGCAGGGCAUCUCUGAGAGUAAUGCC [G88A A140U]: the self-cleavage was 0.07.

As for UACGUAGGUGGUUUUCCCCUGAUAGUGCUAAGGGGGCCUGGAAGUUUGGACUGGGCAGAGCUCAACACAGCGUGGCAAAGUGGCUGUAGCUAGACUGCCUCUCUGGCUUCCUCGUCACUCAGCAGGGCAUCUCUGAGAGAAAUGCC [G88A A107C], the self-cleavage amounted to 0.03.

As for UACGUAGGUGGUUUUCCCCUGAUAGUGCUAAGGGGGCCUGGAAGUUUGGACUGGGCAGAGCUCAACACAGCGUGGCAAAGUGGCUGCGGCUAGACUGCCUCUCUGGAUUCCACGUCACUCAGCAGGGCAUCUCUGAGAGAAAUGCC [U87C U112A], the self-cleavage stood at 0.16.

UACGUAGGUGGUUUUCCCCUGAUAGUGCUAAGGGGGCCUGGAAGUUUGGACUGGGCAGAGCUCAACACAGCGUGGCAAAGUGGCUGCGGCUAGACUGCCUCUCUGGAUUCCCCGUCACUCAGCAGGGCAUCUCUGAGAGAAAUGCC [U87C U112C]: the self-cleavage stood at 0.23.

Regarding UACGUAGGUGGUUUUCCCCUGAUAGUGCUAAGGGGGCCUGGAAGUUUGGACUGGGCAGAGCUCAACACAGCGUGGCAAAGUGGCUGGGGCUAGACUGCCUCUCUGGAUUCCUCGUCACUCAGCAGGGCAUCUCUGAGAGAGAUGCC [U87G A141G], the self-cleavage was determined as 0.

In the case of UACGUAGGUGGUUUUCCCCUGAUAGUGCUAAGGGGGCCUGGAAGUUUGGACUGGGCAGAGCUCAACACAGCGUGGCAAAGUGGCUGGGGCUAGACUGCCUCUCUGGAUUCCUCGUCACUCAGCCGGGCAUCUCUGAGAGAAAUGCC [U87G A124C], the self-cleavage was 0.32.

UACGUAGGUGGUUUUCCCCUGAUAGUGCUAAGGGGGCCUGGAAGUUUGGACUGGGCAGAGCUCAACACAGCGUGGCAAAGUGGCUGCGGCUAGACUGCCUCUCUGGAUUCCUCGUCACUCAGCAGGGCAUCUCUGAGAGAAAAGCC [U87C U143A]: the self-cleavage came out at 0.22.

For the variant UACGUAGGUGGUUUUCCCCUGAUAGUGCUAAGGGGGCCUGGAAGUUUGGACUGGGCAGAGCUCAACACAGCGUGGCAAAGUGGCUGCGGCUAGACUGCCUCUCUGGAUUCCUCGUCACUCAGCAGGGCAUCUCUGAGAGAAACGCC [U87C U143C], the self-cleavage turned out to be 0.21.

For UACGUAGGUGGUUUUCCCCUGAUAGUGCUAAGGGGGCCUGGAAGUUUGGACUGGGCAGAGCUCAACACAGCGUGGCAAAGUGGCUGCGGCUAGACUGCCUCUCUGGAUUCCUCGUCACUCAGCAGGGCAUCUCCGAGAGAAAUGCC [U87C U134C], the self-cleavage was determined as 0.11.

Take UACGUAGGUGGUUUUCCCCUGAUAGUGCUAAGGGGGCCUGGAAGUUUGGACUGGGCAGAGCUCAACACAGCGUGGCAAAGUGGCUGCGGCUAGACUGCCUCUCUGGAUUCCUCGUCACUCAGCAGGGCAUCUCGGAGAGAAAUGCC [U87C U134G]: the self-cleavage is 0.31.

With UACGUAGGUGGUUUUCCCCUGAUAGUGCUAAGGGGGCCUGGAAGUUUGGACUGGGCAGAGCUCAACACAGCGUGGCAAAGUGGCUGUAGCUAGACUGCCUCUCUGGAUUCCUCGUCGCUCAGCAGGGCAUCUCUGAGAGAAAUGCC [G88A A117G], the self-cleavage came to 0.07.

With UACGUAGGUGGUUUUCCCCUGAUAGUGCUAAGGGGGCCUGGAAGUUUGGACUGGGCAGAGCUCAACACAGCGUGGCAAAGUGGCUGGGGCUAGACUGCCUCUCUGGGUUCCUCGUCACUCAGCAGGGCAUCUCUGAGAGAAAUGCC [U87G A107G], the self-cleavage is 0.

Regarding UACGUAGGUGGUUUUCCCCUGAUAGUGCUAAGGGGGCCUGGAAGUUUGGACUGGGCAGAGCUCAACACAGCGUGGCAAAGUGGCUGCGGCGAGACUGCCUCUCUGGAUUCCUCGUCACUCAGCAGGGCAUCUCUGAGAGAAAUGCC [U87C U91G], the self-cleavage was found to be 0.08.

Take UACGUAGGUGGUUUUCCCCUGAUAGUGCUAAGGGGGCCUGGAAGUUUGGACUGGGCAGAGCUCAACACAGCGUGGCAAAGUGGCUGGGGCUAGACUGCCUCUCAGGAUUCCUCGUCACUCAGCAGGGCAUCUCUGAGAGAAAUGCC [U87G U104A]: the self-cleavage was found to be 0.2.

Consider UACGUAGGUGGUUUUCCCCUGAUAGUGCUAAGGGGGCCUGGAAGUUUGGACUGGGCAGAGCUCAACACAGCGUGGCAAAGUGGCUGGGGCUAGACUGCCUCUCUGGAUUCCUCGUCACUCUGCAGGGCAUCUCUGAGAGAAAUGCC [U87G A121U], for which the self-cleavage was determined as 0.2.

Consider UACGUAGGUGGUUUUCCCCUGAUAGUGCUAAGGGGGCCUGGAAGUUUGGACUGGGCAGAGCUCAACACAGCGUGGCAAAGUGGCUGGGGCUAGACUGCCUCUCUGGAUUCCUCGUCGCUCAGCAGGGCAUCUCUGAGAGAAAUGCC [U87G A117G], for which the self-cleavage was found to be 0.

On to UACGUAGGUGGUUUUCCCCUGAUAGUGCUAAGGGGGCCUGGAAGUUUGGACUGGGCAGAGCUCAACACAGCGUGGCAAAGUGGCUGCGGCUAGACUGCCACUCUGGAUUCCUCGUCACUCAGCAGGGCAUCUCUGAGAGAAAUGCC [U87C U100A], for which the self-cleavage amounted to 0.1.

As to UACGUAGGUGGUUUUCCCCUGAUAGUGCUAAGGGGGCCUGGAAGUUUGGACUGGGCAGAGCUCAACACAGCGUGGCAAAGUGGCUGCGGCUAGACUGCCCCUCUGGAUUCCUCGUCACUCAGCAGGGCAUCUCUGAGAGAAAUGCC [U87C U100C], the self-cleavage was 0.26.

On to UACGUAGGUGGUUUUCCCCUGAUAGUGCUAAGGGGGCCUGGAAGUUUGGACUGGGCAGAGCUCAACACAGCGUGGCAAAGUGGCUGGGGCUAGACUGCCUCUCUGGAUUCCCCGUCACUCAGCAGGGCAUCUCUGAGAGAAAUGCC [U87G U112C], for which the self-cleavage is 0.05.

As for UACGUAGGUGGUUUUCCCCUGAUAGUGCUAAGGGGGCCUGGAAGUUUGGACUGGGCAGAGCUCAACACAGCGUGGCAAAGUGGCUGGGGCUAGACUGCCUCUCUGGAUUCCUCGUCACUCAGCAGGGCAUCUCUGAGGGAAAUGCC [U87G A138G], the self-cleavage amounted to 0.14.

In the case of UACGUAGGUGGUUUUCCCCUGAUAGUGCUAAGGGGGCCUGGAAGUUUGGACUGGGCAGAGCUCAACACAGCGUGGCAAAGUGGCUGGGGCUAGACUGCCUCUCUGGAUUCCUCGUCACUCAGCAGGGCAUCUCUGAGUGAAAUGCC [U87G A138U], the self-cleavage was determined as 0.48.

For the variant UACGUAGGUGGUUUUCCCCUGAUAGUGCUAAGGGGGCCUGGAAGUUUGGACUGGGCAGAGCUCAACACAGCGUGGCAAAGUGGCUGUAGCUAGACUGCCUCUCUGGAUUCCUCGUCACUCAGCAGGGCAUCUCUGAGGGAAAUGCC [G88A A138G], the self-cleavage was determined as 0.06.

Regarding UACGUAGGUGGUUUUCCCCUGAUAGUGCUAAGGGGGCCUGGAAGUUUGGACUGGGCAGAGCUCAACACAGCGUGGCAAAGUGGCUGCGGCUAGACUGCCUCUCUGGAUACCUCGUCACUCAGCAGGGCAUCUCUGAGAGAAAUGCC [U87C U109A], the self-cleavage was determined as 0.15.

Turning to UACGUAGGUGGUUUUCCCCUGAUAGUGCUAAGGGGGCCUGGAAGUUUGGACUGGGCAGAGCUCAACACAGCGUGGCAAAGUGGCUGCGGCUAGACUGCCUCUCUGGAUCCCUCGUCACUCAGCAGGGCAUCUCUGAGAGAAAUGCC [U87C U109C], the self-cleavage was 0.27.

As for UACGUAGGUGGUUUUCCCCUGAUAGUGCUAAGGGGGCCUGGAAGUUUGGACUGGGCAGAGCUCAACACAGCGUGGCAAAGUGGCUGCGGCUAGACUGCCUCUCUGGAUUCCUCGUCACUCAGCAGGGCAUCCCUGAGAGAAAUGCC [U87C U132C], the self-cleavage was determined as 0.19.

The values are drawn from the RNAGym collection of RNA variant scans (doi:10.7554/elife.90254).
